Patent US20180088111A1 (published 2018)

Key:
[1] = molecular target: hPD1(25-167)-3S-IG (human) (UniProt Q15116); assay: SPR (Biacore T200), hPD1(25-167)-3S-IG on chip, MIH4 analyte, no PDL-1
[2] = molecular target: hPD1(25-167)-Myc-TVMV-His (human) (UniProt Q15116); assay: SPR (Biacore T200), hPD1(25-167)-His on chip, MIH4 analyte, no PDL-1
[3] = molecular target: hPD1(25-167)-Myc-TVMV-His (human) (UniProt Q15116); assay: SPR (Biacore T200), hPD1(25-167)-His on chip, MIH4 analyte, in the presence of PDL-1 ('2M' [sic])
[4] = molecular target: hPD1(25-167)-Myc-TVMV-His (human) (UniProt Q15116); assay: SPR (Biacore T200), hPD1(25-167)-His coupled to CM5 chip, MIH4 0.195-50 nM as analyte
recombinant human PDL-1 = molecular target: T1, recombinant human PDL-1 (human, UniProt Q9NZQ7 19-239); assay: SPR (ProteOn XPR36), hPD1(25-167)-His captured by His-tag on HTG chip, hPDL-1 0.125-2 µM as analyte, equilibrium analysis
T1 construct: Bought (R&D Systems); whole entry named; also called hPDL-1; soluble human PDL-1
T1 sequence (Q9NZQ7 19-239 limits assumed): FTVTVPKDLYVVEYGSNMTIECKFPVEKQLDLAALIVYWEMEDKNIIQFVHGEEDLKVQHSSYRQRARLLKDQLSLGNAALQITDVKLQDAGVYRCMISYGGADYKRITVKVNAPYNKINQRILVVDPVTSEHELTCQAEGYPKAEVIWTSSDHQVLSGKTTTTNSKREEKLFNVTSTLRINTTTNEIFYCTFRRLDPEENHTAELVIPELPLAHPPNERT
Description: The surface was activated by injecting nickel (II) ions at 30 μl/min for 120 s. All analyses were performed at 25° C. in a PBS-0.05% TWEEN® solution.
The surface was regenerated with 300 mM EDTA (pH 8.5) following BioRad's recommendations. The binding data were analyzed using the PROTEON MANAGER™ Software from Bio-Rad.
Soluble, human PDL-1 was injected into the mobile phase as an analyte.

Molecule: MIH4 (antibody)
- Kd [1]: 0.5 nM
- koff [1]: 0.00024 s⁻¹
- kon [1]: 480000 M⁻¹ s⁻¹
- Kd [2]: 2.8 nM
- koff [2]: 0.00038 s⁻¹
- kon [2]: 130000 M⁻¹ s⁻¹
- Kd [3]: 2.9 nM
- koff [3]: 0.00034 s⁻¹
- kon [3]: 120000 M⁻¹ s⁻¹
- response level (RU) [4]: 0.2 to 49 RU

B1: hPD1(25-167)-Myc-TVMV-His (receptor)
chain: LDSPDRPWNPPTFSPALLVVTEGDNATFTCSFSNTSESFVLNWYRMSPSNQTDKLAAFPEDRSQPGQDCRFRVTQLPNGRDFHMSVVRARRNDSGTYLCGAISLAPKAQIKESLRAELRVTERRAEVPTAHPSPSPRPAGQFQEQKLISEEDLGSSETVRFQGHHHHHH
modifications: glycosylated (HEK293 expression)
notes: range 25-167; Expressed in HEK293-6E cells; glycosylated monomer in solution by SEC-MALS; also called hPD1(25-167)-His; hPD-1(25-167)-His
- Kd (recombinant human PDL-1): 2800 nM
